Results published in the supplement of paper PMC7877785.
± gives the uncertainty stated by the source.

Assay: self-splicing fitness, log relative to wild type (ln ratio); higher = more splicing; Tetrahymena group I intron in knt gene, E. coli kanamycin selection, DiMSum; sequences stand for … in CUCUCU…GGAGGGAAAAGUUAUCAGGCAUGCACCUGGUAGCUAGUCUUUAAACCAAUAGAUUGCAUCGGUUUAAAAGGCAAGACCGUCAAAUUGCGGGAAAGGGGUCAACAGCCGUUCAGUACCAAGUCUCAGGGGAAACUUUGAGAUGGCCUUGCAAAGGGUAUGGUAAUAAGCUGACGGACAUGGUCCUAACCACGCAGCCAAGUCCUAAGUCAACAGAUCUUCUGUUGAUAUGGAUGCAGUUCACAGACUAAAUGUCGGUCGGGGAAGAUGUAUUCUUCUCAUAAGAUAUAGUCGGACCUCUCCUUAAUGGGAGCUAGCGGAUGAAGUGAUGCAACACUGGAGCCGCUGGGAACUAAUUUGUAUGCGAAAGUAUAUUGAUUAGUUUUGGAGUACUCGUGGUCG
Procedure, shortened: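 The eight P1ex-region nucleotides of an intron in the knt kanamycin-resistance gene on pET-22b(+) were all randomised and the library put into E. coli BL21(DE3). Six replicate transformations were grown overnight at 37°C or 30°C on LB agar with or without 25 μg/mL kanamycin, together with 100 μg/mL carbenicillin, 50 μM IPTG and 0.2% rhamnose. Colonies were pooled and amplicon-sequenced on an Illumina HiSeq 2500. Fitness from DiMSum is the error-weighted combination of wild-type-normalised replicate fold changes, kanamycin over none.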

Sequence | self-splicing fitness (ln) (30 °C) | self-splicing fitness (ln) (37 °C)
CAUUAGCAAUAUUACGGGGG | -2.52 ± 0.21 | -1.19 ± 0.15
GGACAGCAAUAUUACGAACU | -0.198 ± 0.08 | 0.442 ± 0.083
UGCAAGCAAUAUUACGGUUU | -2.53 ± 0.071 | -1.28 ± 0.071
GUAUAGCAAUAUUACGGUCC | -0.391 ± 0.28 | -1.19 ± 0.46
CUUAAGCAAUAUUACGCCAG | -2.49 ± 0.22 | -2.06 ± 0.33
CUAUAGCAAUAUUACGCAAC |  | -2.26 ± 0.35
CUAAAGCAAUAUUACGGAUG | -0.152 ± 0.049 | -0.202 ± 0.069
AACUAGCAAUAUUACGAUAC | -3.15 ± 0.23 | -1.24 ± 0.34
UUCAAGCAAUAUUACGACCG | -1.29 ± 0.14 | 0.147 ± 0.18
GGGCAGCAAUAUUACGGGAU | -4.22 ± 0.42 | -1.2 ± 0.17
CUUCAGCAAUAUUACGUGGA | -3.13 ± 0.33 | -3.04 ± 0.28
CGCUAGCAAUAUUACGAUAA | -4.27 ± 0.36 | -2.35 ± 0.32
AAUCAGCAAUAUUACGAUAG | -1.3 ± 0.1 | -0.239 ± 0.1
UCCAAGCAAUAUUACGGCCA | -0.223 ± 0.11 | 0.127 ± 0.11
CCACAGCAAUAUUACGCUGC | -3.06 ± 0.17 | -2.72 ± 0.28
AUCUAGCAAUAUUACGUGCU | -2.25 ± 0.17 | -1.97 ± 0.28
UGAAAGCAAUAUUACGCCAU | -3.11 ± 0.3 | -3.23 ± 0.33
AAGUAGCAAUAUUACGCGAG | -1.74 ± 0.11 | -0.889 ± 0.13
GCGAAGCAAUAUUACGCCAC |  | -2.24 ± 0.42
UGACAGCAAUAUUACGCGUG | -0.925 ± 0.066 | 0.0478 ± 0.08
UUUUAGCAAUAUUACGAGCG | -1.02 ± 0.11 | -1.33 ± 0.1
UAUUAGCAAUAUUACGGGAA | -0.606 ± 0.27 | -1.45 ± 0.31
UCAGAGCAAUAUUACGAUUC |  | -1.19 ± 0.41
CCUGAGCAAUAUUACGACCG | -3.73 ± 0.39 | -2.5 ± 0.37
CUCAAGCAAUAUUACGCCGU | -3.42 ± 0.17 | -1.88 ± 0.15

Sequence | self-splicing fitness (ln) (30 °C) | self-splicing fitness (ln) (37 °C)
ACACAGCAAUAUUACGAUUC | -1.96 ± 0.049 | -1.32 ± 0.072
ACGCAGCAAUAUUACGCCCU | -0.193 ± 0.12 | 0.187 ± 0.12
CGGUAGCAAUAUUACGCCGA | -0.997 ± 0.24 | -1.5 ± 0.25
UGUCAGCAAUAUUACGUGCA | -0.626 ± 0.09 | -0.232 ± 0.1
UAACAGCAAUAUUACGGGUC | -3.89 ± 0.17 | -2.62 ± 0.2
GCAAAGCAAUAUUACGGUUG | -2.86 ± 0.13 | -2.04 ± 0.16
UCACAGCAAUAUUACGGCCU | -3.61 ± 0.25 | -1.99 ± 0.15
UCGAAGCAAUAUUACGGAGA | -2.69 ± 0.24 | -2.44 ± 0.32
AAGGAGCAAUAUUACGAGAG | -1.62 ± 0.17 | -2.58 ± 0.34
CCUUAGCAAUAUUACGCCCA | -1.96 ± 0.34 | 
CGAGAGCAAUAUUACGAGAG | -3.58 ± 0.35 | -0.712 ± 0.31
AACUAGCAAUAUUACGAGUA | -0.62 ± 0.07 | -0.322 ± 0.083
GUUCAGCAAUAUUACGACAA | -1.06 ± 0.18 | -0.319 ± 0.18
ACUCAGCAAUAUUACGCUGC | -3.36 ± 0.3 | -2.24 ± 0.29
CUCUAGCAAUAUUACGGAGG | -2.14 ± 0.2 | -1.32 ± 0.21
AGUCAGCAAUAUUACGGCGG | -0.596 ± 0.1 | -0.561 ± 0.12
GCUCAGCAAUAUUACGUCUA | -0.844 ± 0.1 | -0.494 ± 0.097
UAGGAGCAAUAUUACGGGUC | -2.64 ± 0.19 | 
GUUGAGCAAUAUUACGCUUG | -2.79 ± 0.22 | -2.15 ± 0.27
UUCCAGCAAUAUUACGUUAG | -2.57 ± 0.17 | -0.904 ± 0.16
AUUAAGCAAUAUUACGAACC | -1.35 ± 0.29 | -0.847 ± 0.29
UGCUAGCAAUAUUACGCAUC | -3.95 ± 0.21 | -2.45 ± 0.17
CAGUAGCAAUAUUACGCUUA | -0.683 ± 0.21 | -0.832 ± 0.19
CUCUAGCAAUAUUACGGUUG | -1.83 ± 0.12 | -0.869 ± 0.14
AGUAAGCAAUAUUACGGAUU | -1.92 ± 0.13 | -0.84 ± 0.16

Sequence | self-splicing fitness (ln) (30 °C) | self-splicing fitness (ln) (37 °C)
UCUCAGCAAUAUUACGGCUA | -0.678 ± 0.29 | -2.19 ± 0.32
CUCUAGCAAUAUUACGGUAG | -4.49 ± 0.33 | -1.79 ± 0.23
UGUAAGCAAUAUUACGUUUU | -4.1 ± 0.18 | -1.14 ± 0.096
CGCAAGCAAUAUUACGGGAG | -2.73 ± 0.095 | -2.19 ± 0.12
AAGGAGCAAUAUUACGCGUG | -4.9 ± 0.45 | -2.1 ± 0.18
CGCUAGCAAUAUUACGCAAA |  | -3.01 ± 0.47
CGAAAGCAAUAUUACGCGCA | -0.957 ± 0.12 | -0.435 ± 0.13
CUUAAGCAAUAUUACGCUUC | -3.15 ± 0.4 | 
GGUCAGCAAUAUUACGUAGC | -0.572 ± 0.067 | -0.268 ± 0.081
UUUAAGCAAUAUUACGUACG | -0.346 ± 0.16 | 0.322 ± 0.17
CCACAGCAAUAUUACGACCG | -0.115 ± 0.064 | -0.00245 ± 0.083
GAAAAGCAAUAUUACGAGAG | -3.43 ± 0.28 | -2.48 ± 0.21
AUCUAGCAAUAUUACGCGGU | -2.85 ± 0.18 | -2.73 ± 0.26
AUGGAGCAAUAUUACGCCAC | -2.95 ± 0.41 | 
UUGAAGCAAUAUUACGCAGC | -3.74 ± 0.3 | -1.05 ± 0.34
GAGGAGCAAUAUUACGCUAG |  | -1.8 ± 0.27
CGGGAGCAAUAUUACGGGGA | -2.04 ± 0.3 | -1.83 ± 0.23
UAAUAGCAAUAUUACGAGGC | -3.59 ± 0.35 | -1.46 ± 0.33
AUUAAGCAAUAUUACGAAAA | -1.27 ± 0.16 | -1.5 ± 0.18
AUGAAGCAAUAUUACGUGAU | -1.24 ± 0.073 | -0.839 ± 0.085
UCACAGCAAUAUUACGCACA | -0.445 ± 0.088 | -0.743 ± 0.12
CUGAAGCAAUAUUACGAAAA | -4.17 ± 0.25 | -2.59 ± 0.22
AUAUAGCAAUAUUACGUGGA | -3.57 ± 0.27 | -3.04 ± 0.26
GCAAAGCAAUAUUACGUUCU | -1.44 ± 0.094 | -0.638 ± 0.097
UGCUAGCAAUAUUACGAGUU | -1.64 ± 0.11 | 0.518 ± 0.12

Sequence | self-splicing fitness (ln) (30 °C) | self-splicing fitness (ln) (37 °C)
UACGAGCAAUAUUACGGCGU | -2.83 ± 0.33 | -1.73 ± 0.29
CCAAAGCAAUAUUACGAAGG | -3.61 ± 0.15 | -2.9 ± 0.3
CCGGAGCAAUAUUACGUGCG | -1.42 ± 0.077 | -0.676 ± 0.091
CCGAAGCAAUAUUACGCGAU | -3.78 ± 0.28 | -1.93 ± 0.33
CCAUAGCAAUAUUACGGAUC | -1.97 ± 0.41 | -1.72 ± 0.32
CAGGAGCAAUAUUACGGUCA | -2.39 ± 0.3 | -1.56 ± 0.32
AUCGAGCAAUAUUACGGGAU | -2.82 ± 0.15 | -1.78 ± 0.19
GCAUAGCAAUAUUACGCUCC | -1.61 ± 0.17 | -1.94 ± 0.31
UCUCAGCAAUAUUACGGCGA | -1.13 ± 0.1 | -0.623 ± 0.11
UUUUAGCAAUAUUACGUAUC |  | -2.56 ± 0.33
GGUUAGCAAUAUUACGUGAA | -0.107 ± 0.13 | -0.9 ± 0.14
GUGUAGCAAUAUUACGGGUC | -2.47 ± 0.2 | -2.49 ± 0.28
UGCAAGCAAUAUUACGACCG | 0.118 ± 0.086 | 0.563 ± 0.13
CGUCAGCAAUAUUACGUCGC | -3.45 ± 0.34 | -1.88 ± 0.36
GCAGAGCAAUAUUACGAGCG | -2.33 ± 0.29 | -1.41 ± 0.23
GGUGAGCAAUAUUACGUGAU | -2.45 ± 0.13 | -1.71 ± 0.18
UAUAAGCAAUAUUACGCCUC | -2.74 ± 0.38 | -2.08 ± 0.36
UCGCAGCAAUAUUACGAUGC | -3.73 ± 0.28 | -1.64 ± 0.2
ACUCAGCAAUAUUACGAAGA | -0.868 ± 0.1 | -0.958 ± 0.11
UGGUAGCAAUAUUACGCGUA | -1.26 ± 0.24 | -1.56 ± 0.27
AUGAAGCAAUAUUACGCAAG | -0.379 ± 0.085 | -0.121 ± 0.11
CCUGAGCAAUAUUACGUCCU | -4.5 ± 0.39 | 
UCAUAGCAAUAUUACGUAUC | -4.44 ± 0.33 | -3.23 ± 0.24
